From patent US20130209454A1

Columns and labels:
Experiment in all cases: cell-based or functional assay
[1] = target: HIV-1 Env of strain SC422661.8 (HIV-1)
[2] = target: HIV-1 Env of strain AC10.0.29 (HIV-1)
[3] = target: HIV-1 Env of strain CAP45.2.00.G3 (HIV-1)
[4] = target: HIV-1 Env of strain CAP210.2.00.E8 (HIV-1)
[5] = target: HIV-1 Env of strain TRO.11 (HIV-1)
[6] = target: HIV-1 strain SC422661.8 envelope (gp120) (HIV-1)
[7] = target: HIV-1 strain 0815.v3.c3 envelope (gp120) (HIV-1)
[8] = target: HIV-1 Env of strain R1166.c01 (HIV-1)
[9] = target: HIV-1 Env of strain Q461.e2 (HIV-1)
[10] = target: HIV-1 Env of strain T251-18 (HIV-1)
[11] = target: HIV-1 strain Ce2010_F5 envelope (gp120) (HIV-1)
[12] = target: HIV-1 Env of strain HIV-16845-2.22 (HIV-1)
[13] = target: HIV-1 Env of strain 3016.v5.c45 (HIV-1)
[14] = target: HIV-1 Env of strain 89-F1_2_25 (HIV-1)
[15] = target: HIV-1 strain 231965.c01 envelope (gp120) (HIV-1)
[16] = target: HIV-1 Env of strain X2131_C1_B5 (HIV-1)
[17] = target: HIV-1 strain X1254_c3 envelope (gp120) (HIV-1)
[18] = target: HIV-1 strain 1056_10_TA11_1826 envelope (gp120) (HIV-1)
[19] = target: HIV-1 Env of strain Ce704809221_1B3 (HIV-1)
[20] = target: HIV-1 Env of strain BJOX025000.01.1 (HIV-1)
[21] = target: HIV-1 Env of strain C4118.c09 (HIV-1)
[22] = target: HIV-1 Env of strain CAP210.2.00.E8 (HIV-1); remark: listed apart in the source
[23] = target: HIV-1 Env of strain 191821_E6_1 (HIV-1)
[24] = target: HIV-1 Env of strain A07412M1.vrc12 (HIV-1)
[25] = target: HIV-1 Env of strain CNE5 (HIV-1)
[26] = target: HIV-1 Env of strain 6041.v3.c23 (HIV-1)
[27] = target: HIV-1 Env of strain 246F C1G (HIV-1)

B1: NIH45-46^G54Y IgG (antibody, name in Kabat numbering, V domains shown)
VH: QVRLSQSGGQMKKPGESMRLSCRASGYEFLNCPINWIRLAPGRRPEWMGWLKPRYGAVNYARKFQGRVTMTRDVYSDTAFLELRSLTSDDTAVYFCTRGKYCTARDYYNWDFEHWGRGAPVTVSS
VL: EIVLTQSPATLSLSPGETAIISCRTSQSGSLAWYQQRPGQAPRLVIYSGSTRAAGIPDRFSGSRWGADYNLSISNLESGDFGVYYCQQYEFFGQGTKVQVDI
Q: Which neutralization IC50 [1] does the source give for B1 here?
A: 0.06 µg/mL

Q: What about the neutralization IC50 [2] of the same binder?
A: 0.4 µg/mL

Q: What about the neutralization IC50 [3] of the same binder?
A: 45 µg/mL

Q: What about the neutralization IC50 [4] of the same binder?
A: > 50 µg/mL

Q: What about the neutralization IC50 [5] of the same binder?
A: 0.1 µg/mL

Q: And the neutralization IC80 [6]?
A: 0.09 µg/mL

Q: What about the neutralization IC80 [7] of the same binder?
A: 0.015 µg/mL

Q: And the neutralization IC50 [8]?
A: 0.24 µg/mL

Q: What about the neutralization IC50 [9] of the same binder?
A: 0.023 µg/mL

Q: What about the neutralization IC50 [10] of the same binder?
A: 0.35 µg/mL

Q: And the neutralization IC80 [11]?
A: 0.235 µg/mL

Q: What about the neutralization IC50 [12] of the same binder?
A: 0.59 µg/mL

Q: And the neutralization IC50 [13]?
A: 17.9 µg/mL

Q: What about the neutralization IC50 [14] of the same binder?
A: > 50 µg/mL

Q: And the neutralization IC80 [15]?
A: 0.054 µg/mL

Q: And the neutralization IC50 [16]?
A: 0.1 µg/mL

Q: And the neutralization IC80 [17]?
A: 0.041 µg/mL

Q: And the neutralization IC80 [18]?
A: 0.189 µg/mL

B2: NIH45-46^G54F IgG (antibody, name in Kabat numbering, V domains shown)
VH: QVRLSQSGGQMKKPGESMRLSCRASGYEFLNCPINWIRLAPGRRPEWMGWLKPRFGAVNYARKFQGRVTMTRDVYSDTAFLELRSLTSDDTAVYFCTRGKYCTARDYYNWDFEHWGRGAPVTVSS
VL: EIVLTQSPATLSLSPGETAIISCRTSQSGSLAWYQQRPGQAPRLVIYSGSTRAAGIPDRFSGSRWGADYNLSISNLESGDFGVYYCQQYEFFGQGTKVQVDI
Q: Which neutralization IC50 [1] does the source give for B2 here?
A: 0.02 µg/mL

Q: And the neutralization IC50 [2]?
A: 0.3 µg/mL

Q: And the neutralization IC50 [3]?
A: > 50 µg/mL

Q: What about the neutralization IC50 [4] of the same binder?
A: > 50 µg/mL

Q: And the neutralization IC50 [5]?
A: 0.08 µg/mL

Q: What about the neutralization IC80 [6] of the same binder?
A: 0.1 µg/mL

Q: What about the neutralization IC80 [7] of the same binder?
A: 0.014 µg/mL

Q: What about the neutralization IC50 [8] of the same binder?
A: 0.4 µg/mL

Q: What about the neutralization IC50 [9] of the same binder?
A: 0.03 µg/mL

Q: What about the neutralization IC50 [10] of the same binder?
A: 0.41 µg/mL

Q: And the neutralization IC80 [11]?
A: 0.186 µg/mL

Q: And the neutralization IC50 [12]?
A: 0.59 µg/mL

Q: What about the neutralization IC50 [13] of the same binder?
A: 5.82 µg/mL

Q: What about the neutralization IC50 [14] of the same binder?
A: > 50 µg/mL

Q: What about the neutralization IC80 [15] of the same binder?
A: 0.062 µg/mL

Q: And the neutralization IC50 [16]?
A: 0.1 µg/mL

Q: What about the neutralization IC80 [17] of the same binder?
A: 0.043 µg/mL

Q: What about the neutralization IC80 [18] of the same binder?
A: 0.283 µg/mL

B3: NIH45-46^G54W(HC), S28Y(LC) (antibody, V domains shown)
VH: QVRLSQSGGQMKKPGESMRLSCRASGYEFLNCPINWIRLAPGRRPEWMGWLKPRWGAVNYARKFQGRVTMTRDVYSDTAFLELRSLTSDDTAVYFCTRGKYCTARDYYNWDFEHWGRGAPVTVSS
VL: EIVLTQSPATLSLSPGETAIISCRTSQYGSLAWYQQRPGQAPRLVIYSGSTRAAGIPDRFSGSRWGADYNLSISNLESGDFGVYYCQQYEFFGQGTKVQVDI
Q: Which IC50, pseudovirus neutralization [19] does the source give for B3 here?
A: 0.101 µg/mL

Q: And the IC50, pseudovirus neutralization [8]?
A: 0.278 µg/mL

Q: What about the IC50, pseudovirus neutralization [20] of the same binder?
A: 0.031 µg/mL

Q: What about the IC50, pseudovirus neutralization [9] of the same binder?
A: 0.034 µg/mL

Q: What about the IC50, pseudovirus neutralization [21] of the same binder?
A: 0.011 µg/mL

Q: What about the IC50, pseudovirus neutralization [22] of the same binder?
A: 1.95 µg/mL

Q: What about the IC50, pseudovirus neutralization [10] of the same binder?
A: 0.336 µg/mL

Q: And the IC50, pseudovirus neutralization [12]?
A: 0.38 µg/mL

Q: And the IC50, pseudovirus neutralization [13]?
A: 0.006 µg/mL

Q: And the IC50, pseudovirus neutralization [23]?
A: 0.05 µg/mL

Q: And the IC50, pseudovirus neutralization [24]?
A: 0.001 µg/mL

Q: What about the IC50, pseudovirus neutralization [14] of the same binder?
A: > 50 µg/mL

Q: And the IC50, pseudovirus neutralization [25]?
A: 0.032 µg/mL

Q: What about the IC50, pseudovirus neutralization [26] of the same binder?
A: 0.001 µg/mL

Q: And the IC50, pseudovirus neutralization [16]?
A: 0.031 µg/mL

Q: What about the IC50, pseudovirus neutralization [27] of the same binder?
A: 0.036 µg/mL
